Here are results for 9 molecules from patent publication US5710244A, “Derivatized calcitonins” (priority 1993, dated 1998).

Assay [1] addresses endogenous hamster calcitonin receptor (hamster).
The target in assay [2] is T1, recombinant human calcitonin receptor (human, UniProt P30988).
T1 sequence: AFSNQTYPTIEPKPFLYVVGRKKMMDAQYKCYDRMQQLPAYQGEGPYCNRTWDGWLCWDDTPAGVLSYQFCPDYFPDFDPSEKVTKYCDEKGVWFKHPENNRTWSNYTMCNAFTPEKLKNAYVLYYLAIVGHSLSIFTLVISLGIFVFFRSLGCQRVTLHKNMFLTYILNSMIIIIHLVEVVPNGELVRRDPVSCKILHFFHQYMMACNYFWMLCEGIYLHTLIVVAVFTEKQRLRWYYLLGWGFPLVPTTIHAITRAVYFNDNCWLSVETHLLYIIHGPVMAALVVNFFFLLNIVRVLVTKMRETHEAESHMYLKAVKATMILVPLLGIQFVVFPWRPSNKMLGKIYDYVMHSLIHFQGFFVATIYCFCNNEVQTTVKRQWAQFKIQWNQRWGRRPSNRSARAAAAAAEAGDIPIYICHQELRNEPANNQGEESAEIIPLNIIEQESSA
Put plainly: cell-based or functional assay.

Numbered stars: 1 amine (or outer) side, 2 acyl side, 3 side chain; on linkers, the order of the positions; unused ones are H or OH. Bridge positions count the residues as written; N and C are the ends. * marks the point of attachment. X1 = 2,2'‑bipyridine‑4,4'‑dicarboxylic acid, O=C(O)c1ccnc(-c2cc(C(=O)*)ccn2)c1; X2 = 2,2'‑bipyridine‑5,5'‑dicarboxylic acid, O=C(O)c1ccc(-c2ccc(C(=O)*)cn2)nc1; Biphenyldicarbonyl(4,4') = O=C(c1ccc(-c2ccc(C(=O)[*:2])cc2)cc1)[*:1]; Nicotinoyl = O=C(c1cccnc1)*

“human calcitonin (from UniProt P01258) (peptide)”: the % SCT EC50 (CRE-linked luciferase induction) in assay [1] is 5900 % SCT EC50.

B1: 4-4'-biphenyldicarboxylic acid modified salmon calcitonin (peptide)
peptide: {Biphenyldicarbonyl(4,4')}-CSNLSTCVLGKLSQELHKLQTYPRTNTGSGTP-NH2
modifications: disulfide 1-7
SMILES: CC(C)C[C@H](NC(=O)[C@H](CCCCN)NC(=O)CNC(=O)[C@H](CC(C)C)NC(=O)[C@@H](NC(=O)[C@@H]1CSSC[C@H](NC(=O)c2ccc(-c3ccc(C(=O)O)cc3)cc2)C(=O)N[C@@H](CO)C(=O)N[C@@H](CC(N)=O)C(=O)N[C@@H](CC(C)C)C(=O)N[C@@H](CO)C(=O)N[C@@H]([C@@H](C)O)C(=O)N1)C(C)C)C(=O)N[C@@H](CO)C(=O)N[C@@H](CCC(N)=O)C(=O)N[C@@H](CCC(=O)O)C(=O)N[C@@H](CC(C)C)C(=O)N[C@@H](Cc1c[nH]cn1)C(=O)N[C@@H](CCCCN)C(=O)N[C@@H](CC(C)C)C(=O)N[C@@H](CCC(N)=O)C(=O)N[C@H](C(=O)N[C@@H](Cc1ccc(O)cc1)C(=O)N1CCC[C@H]1C(=O)N[C@@H](CCCNC(=N)N)C(=O)N[C@H](C(=O)N[C@@H](CC(N)=O)C(=O)N[C@H](C(=O)NCC(=O)N[C@@H](CO)C(=O)NCC(=O)N[C@H](C(=O)N1CCC[C@H]1C(N)=O)[C@@H](C)O)[C@@H](C)O)[C@@H](C)O)[C@@H](C)O
For the molecule B1, the entries for the “% SCT EC50 (CRE-linked luciferase induction)” value (shortened to “% SCT EC50”) in assay [2] and in assay [1] were 450 % SCT EC50 and 341 % SCT EC50, respectively.

B2: Bipyridine-modified Calcitonin (peptide)
peptide: X1-CSNLSTCVLGKLSQELHKLQTYPRTNTGSGTP-NH2
modifications: disulfide 1-7
SMILES: CC(C)C[C@H](NC(=O)[C@H](CCCCN)NC(=O)CNC(=O)[C@H](CC(C)C)NC(=O)[C@@H](NC(=O)[C@@H]1CSSC[C@H](NC(=O)c2ccnc(-c3cc(C(=O)O)ccn3)c2)C(=O)N[C@@H](CO)C(=O)N[C@@H](CC(N)=O)C(=O)N[C@@H](CC(C)C)C(=O)N[C@@H](CO)C(=O)N[C@@H]([C@@H](C)O)C(=O)N1)C(C)C)C(=O)N[C@@H](CO)C(=O)N[C@@H](CCC(N)=O)C(=O)N[C@@H](CCC(=O)O)C(=O)N[C@@H](CC(C)C)C(=O)N[C@@H](Cc1c[nH]cn1)C(=O)N[C@@H](CCCCN)C(=O)N[C@@H](CC(C)C)C(=O)N[C@@H](CCC(N)=O)C(=O)N[C@H](C(=O)N[C@@H](Cc1ccc(O)cc1)C(=O)N1CCC[C@H]1C(=O)N[C@@H](CCCNC(=N)N)C(=O)N[C@H](C(=O)N[C@@H](CC(N)=O)C(=O)N[C@H](C(=O)NCC(=O)N[C@@H](CO)C(=O)NCC(=O)N[C@H](C(=O)N1CCC[C@H]1C(N)=O)[C@@H](C)O)[C@@H](C)O)[C@@H](C)O)[C@@H](C)O
With B2, the “% SCT EC50” value was 97 % SCT EC50 in assay [2] and 73 % SCT EC50 in assay [1].

B3: 2,2'-bipyridine-5,5'-dicarboxylic acid modified salmon calcitonin (peptide)
peptide: X2-CSNLSTCVLGKLSQELHKLQTYPRTNTGSGTP-NH2
modifications: disulfide 1-7
SMILES: CC(C)C[C@H](NC(=O)[C@H](CCCCN)NC(=O)CNC(=O)[C@H](CC(C)C)NC(=O)[C@@H](NC(=O)[C@@H]1CSSC[C@H](NC(=O)c2ccc(-c3ccc(C(=O)O)cn3)nc2)C(=O)N[C@@H](CO)C(=O)N[C@@H](CC(N)=O)C(=O)N[C@@H](CC(C)C)C(=O)N[C@@H](CO)C(=O)N[C@@H]([C@@H](C)O)C(=O)N1)C(C)C)C(=O)N[C@@H](CO)C(=O)N[C@@H](CCC(N)=O)C(=O)N[C@@H](CCC(=O)O)C(=O)N[C@@H](CC(C)C)C(=O)N[C@@H](Cc1c[nH]cn1)C(=O)N[C@@H](CCCCN)C(=O)N[C@@H](CC(C)C)C(=O)N[C@@H](CCC(N)=O)C(=O)N[C@H](C(=O)N[C@@H](Cc1ccc(O)cc1)C(=O)N1CCC[C@H]1C(=O)N[C@@H](CCCNC(=N)N)C(=O)N[C@H](C(=O)N[C@@H](CC(N)=O)C(=O)N[C@H](C(=O)NCC(=O)N[C@@H](CO)C(=O)NCC(=O)N[C@H](C(=O)N1CCC[C@H]1C(N)=O)[C@@H](C)O)[C@@H](C)O)[C@@H](C)O)[C@@H](C)O
As to B3, the “% SCT EC50” value in assay [2] came to 199 % SCT EC50; in assay [1], 125 % SCT EC50.

B4: isonipecotic acid modified salmon calcitonin (peptide)
peptide: CSNLSTCVLGKLSQELHKLQTYPRTNTGSGTP
modifications: N-terminal amino group acylated with isonipecotic acid (amide linkage); C-terminal amide; disulfide Cys1-Cys7
Take B4: the figures for the “% SCT EC50” value in assay [2] and in assay [1] were 146 % SCT EC50 and 106 % SCT EC50, respectively.

B5: DL-pipecolinic acid modified salmon calcitonin (peptide)
peptide: CSNLSTCVLGKLSQELHKLQTYPRTNTGSGTP
modifications: N-terminal amino group acylated with DL-pipecolinic acid (amide linkage); C-terminal amide; disulfide Cys1-Cys7
With B5, the “% SCT EC50” value in assay [2] was 230 % SCT EC50; in assay [1], 147 % SCT EC50. The matching figures for {nipecotic acid}-CSNLSTCVLGKLSQELHKLQTYPRTNTGSGTP-NH2 (disulfide 1-7) [nipecotic acid modified salmon calcitonin]: 243 % SCT EC50 and 152 % SCT EC50.

B6: Nicotinic acid-modified Calcitonin (peptide)
peptide: Nicotinoyl-CSNLSTCVLGKLSQELHKLQTYPRTNTGSGTP-NH2
modifications: disulfide 1-7
SMILES: CC(C)C[C@H](NC(=O)[C@H](CCCCN)NC(=O)CNC(=O)[C@H](CC(C)C)NC(=O)[C@@H](NC(=O)[C@@H]1CSSC[C@H](NC(=O)c2cccnc2)C(=O)N[C@@H](CO)C(=O)N[C@@H](CC(N)=O)C(=O)N[C@@H](CC(C)C)C(=O)N[C@@H](CO)C(=O)N[C@@H]([C@@H](C)O)C(=O)N1)C(C)C)C(=O)N[C@@H](CO)C(=O)N[C@@H](CCC(N)=O)C(=O)N[C@@H](CCC(=O)O)C(=O)N[C@@H](CC(C)C)C(=O)N[C@@H](Cc1c[nH]cn1)C(=O)N[C@@H](CCCCN)C(=O)N[C@@H](CC(C)C)C(=O)N[C@@H](CCC(N)=O)C(=O)N[C@H](C(=O)N[C@@H](Cc1ccc(O)cc1)C(=O)N1CCC[C@H]1C(=O)N[C@@H](CCCNC(=N)N)C(=O)N[C@H](C(=O)N[C@@H](CC(N)=O)C(=O)N[C@H](C(=O)NCC(=O)N[C@@H](CO)C(=O)NCC(=O)N[C@H](C(=O)N1CCC[C@H]1C(N)=O)[C@@H](C)O)[C@@H](C)O)[C@@H](C)O)[C@@H](C)O
For B6, the “% SCT EC50” value in assay [2] came to 112 % SCT EC50; in assay [1], 71 % SCT EC50. For the molecule {picolinic acid}-CSNLSTCVLGKLSQELHKLQTYPRTNTGSGTP-NH2 (disulfide 1-7) [Pycolinyl-modified Calcitonin], the “% SCT EC50” value was 140 % SCT EC50 in assay [2] and 98 % SCT EC50 in assay [1].
